From patent publication US20110009314A1, “Single-Chain Insulin Analogues and Pharmaceutical Formulations Thereof” (Novo Nordisk A/S, priority 2006, published 2011)

Assay: Size exclusion chromatography (SEC, gelfiltration) migration of insulin analogues and mixtures relative to the standards X2 (monomer) and HSA
Assay type: physicochemical
Conditions: D 1.2 mM, Zn 0.6 mM
Description: Migration of the insulin analogues and insulin analogue combinations were measured in relation to the standards mentioned below.
The test mixtures were formulated with conventional pharmaceutical adjuvants and additives. All mixtures were formulated with 16/16 mM phenol/cresol. Zinc was added as zinc acetate in various amounts. pH was 7.5.
Size exclusion chromatography (SEC) was performed essentially as described in Havelund et al. 2004 Pharmaceutical research, 21, 1498-1504. The chromatographic system was a Superose 6 HR PC 6/30 column (GE healthcare) eluted by tris-buffered isotonic saline (NaCl-140 mM, tris/HCl 10 mM, NaN3 0.01%, pH 7.5 at 37° C., injecting 1% of column volume and using a flow of 90 min per column volume and UV detection at 276 nm. The references were a stable insulin monomeric insulin X2 (AspB9, GluB27 human insulin, zinc free), a stable hexameric insulin: Co(III) insulin, albumin (HSA), and covalent albumin (formed in solution).

## Lys^B29(N^ε-(N-lithocholyl-γ-glutamyl)) des(B30) human insulin [Compound D]
  Measured SEC migration % HSA: 78%
  Measured SEC migration % X2: 15%
